Assay results: patent publication US20190113512A1
Where a chain is given by its changes, count along the chain named. “And” between values parts separate entries of the source, which are not always exact repeats. Identical values can stand only once.

B1: rcSso7d.Rv1656 (yeast-surface displayed) (designed binder)
chain: MATVKFTYQGEEKQVDISKIKWVRRYGQYIGFSYDEGGGAWGKGYVSEKDAPKELLQMLEKQ
B2: rcSso7d.H4.9 (designed binder)
chain: MATVKFTYQGEEKQVDISKIKYVKRIGQYISFNYDEGGGAHGHGIVSEKDAPKELLQMLEKQ
B3: rcSso7d.H4.3 (designed binder)
chain: MATVKFTYQGEEKQVDISKIKHVWRRGQNIYFRYDEGGGAWGAGAVSEKDAPKELLQMLEKQ
B4: rcSso7d.H4.7 (designed binder)
chain: B3 chain with H22Y, R26H, N29H, Y31A, W41H, A43W, A45S
B5: rcSso7d.H4.8 (designed binder)
chain: B3 chain with H22D, R26H, N29H, Y31I, R33S, W41Y, A45H
B6: rcSso7d.H4.5 (designed binder)
chain: B3 chain with H22G, W24Y, R26H, N29S, Y31W, A43W, A45I
B7: rcSso7d.H7.1 (designed binder)
chain: MATVKFTYQGEEKQVDISKIKYVYRWGQRIWFRYDEGGGAIGRGRVSEKDAPKELLQMLEKQ
B8: rcSso7d.H1BA.6 (designed binder)
chain: B7 chain with Y22D, Y24W, R29W, W31D, R33I, I41D, R43W
B9: rcSso7d.H4.4 (designed binder)
chain: MATVKFTYQGEEKQVDISKIKSVKRNGQSIDFDYDEGGGAAGEGKVSEKDAPKELLQMLEKQ
B10: rcSso7d.H6BA.2 (designed binder)
chain: B1 chain with R24Y, Y26W, G31I, S33A, W41A, Y45S
B11: rcSso7d.H6BA.1 (designed binder)
chain: B1 chain with R24Y, G31I, S33G, W41K, K43N
B12: rcSso7d.H1BA.5 (designed binder)
chain: B1 chain with W22Y, S33I
B13: rcSso7d.H1BA.1 (designed binder)
chain: B1 chain with W22H, Y26W, G31I, S33A, W41Y, K43G, Y45W
B14: rcSso7d.H1BA.4 (designed binder)
chain: B1 chain with W22N, R24Y, Y26W, G31I, W41Y, K43W, Y45W
B15: rcSso7d.H4.6 (designed binder)
chain: B9 chain with K24H, N26Y, S29K, D31Y, A41I, E43K, K45H
B16: rcSso7d.H6BA.3 (designed binder)
chain: MATVKFTYQGEEKQVDISKIKRVIRAGQSIIFSYDEGGGAIGHGWVSEKDAPKELLQMLEKQ
B17: rcSso7d.H2BA.1 (designed binder)
chain: B16 chain with A26Y, S29A, I31A, S33A, I41R, H43Y

biological target: fluorescent reagents used to detect binding activity

| Binder | Quadrant % Q1 [%] |
| --- | --- |
| B1 | 0.1 |

biological target: fluorescent reagents used to detect binding activity; remark: another data set of the same source

| Binder | Secondary control signal |
| --- | --- |
| B2 | 0% |
| B3 | 0% |
| B4 | 0% |
| B5 | 0% |
| B6 | 0.6% |
| B7 | 1.8% |
| B8 | 0.5% |
| B9 | 0% |
| B1 | 0.6% and 2.3% and 0% |
| B10 | 7.3% |
| B11 | 1.5% |
| B12 | 0.9% |
| B13 | 6% |
| B14 | 0% |
| B15 | 0% |
| B16 | 1.7% |
| B17 | 3.2% |
